{"source": "the supplement of paper PMC9112550", "about": "“Optimization of the antimicrobial peptide Bac7 by deep mutational scanning” (BMC Biology, 2022);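 further: peptides expressed intracellularly from a pBAD plasmid library in pooled LB shake-flask culture, induced with 0.3% L-arabinose, DNA abundance read by NGS, three biological replicates, DESeq2 with apeglm shrinkage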", "data": [{"tested_on": "Escherichia coli TOP10", "assay": "shrunken log2 fold change of peptide-encoding DNA abundance (4.5 h post-induction vs induction); higher = less antimicrobial activity (less host growth inhibition)", "details": "time post-induction: 4.5 h; library: site-saturation at positions 5, 18, 19, 20", "values": [{"sequence": "RRIRFRPPRLPRPRPRPIETPRP", "shrunken log2 fold change": -0.186}, {"sequence": "RRIRERPPRLPRPRPRPWPCPRP", "shrunken log2 fold change": 0.151}, {"sequence": "RRIRYRPPRLPRPRPRPEYYPRP", "shrunken log2 fold change": -0.0128}, {"sequence": "RRIRNRPPRLPRPRPRPWKPPRP", "shrunken log2 fold change": 0.0219}, {"sequence": "RRIRMRPPRLPRPRPRPKGNPRP", "shrunken log2 fold change": 0.0272}, {"sequence": "RRIRQRPPRLPRPRPRPSMRPRP", "shrunken log2 fold change": 0.0637}, {"sequence": "RRIRGRPPRLPRPRPRPMACPRP", "shrunken log2 fold change": -0.119}, {"sequence": "RRIRPRPPRLPRPRPRPGTSPRP", "shrunken log2 fold change": -0.0162}, {"sequence": "RRIRDRPPRLPRPRPRPTTIPRP", "shrunken log2 fold change": -0.121}, {"sequence": "RRIRQRPPRLPRPRPRPTKFPRP", "shrunken log2 fold change": -0.203}, {"sequence": "RRIRVRPPRLPRPRPRPWCRPRP", "shrunken log2 fold change": -0.396}, {"sequence": "RRIRGRPPRLPRPRPRPQKLPRP", "shrunken log2 fold change": 0.13}, {"sequence": "RRIRDRPPRLPRPRPRPHFNPRP", "shrunken log2 fold change": -0.381}, {"sequence": "RRIRPRPPRLPRPRPRPGIIPRP", "shrunken log2 fold change": -0.0894}, {"sequence": "RRIRDRPPRLPRPRPRPQWHPRP", "shrunken log2 fold change": -0.292}, {"sequence": "RRIRHRPPRLPRPRPRPYSVPRP", "shrunken log2 fold change": -0.481}, {"sequence": "RRIRDRPPRLPRPRPRPCNKPRP", "shrunken log2 fold change": -0.764}, {"sequence": "RRIRYRPPRLPRPRPRPNPPPRP", "shrunken log2 fold change": 0.0395}, {"sequence": "RRIRDRPPRLPRPRPRPPSYPRP", "shrunken log2 fold change": -0.222}, {"sequence": "RRIRLRPPRLPRPRPRPWACPRP", "shrunken log2 fold change": -0.0699}, {"sequence": "RRIRLRPPRLPRPRPRPFVLPRP", "shrunken log2 fold change": -0.513}, {"sequence": "RRIRDRPPRLPRPRPRPLIHPRP", "shrunken log2 fold change": -0.0249}, {"sequence": "RRIRVRPPRLPRPRPRPPAIPRP", "shrunken log2 fold change": 0.376}, {"sequence": "RRIRERPPRLPRPRPRPKRWPRP", "shrunken log2 fold change": 0.35}, {"sequence": "RRIRWRPPRLPRPRPRPGRQPRP", "shrunken log2 fold change": -0.00663}, {"sequence": "RRIRPRPPRLPRPRPRPFNMPRP", "shrunken log2 fold change": -0.949}, {"sequence": "RRIRKRPPRLPRPRPRPNQIPRP", "shrunken log2 fold change": 0.105}, {"sequence": "RRIRPRPPRLPRPRPRPQCIPRP", "shrunken log2 fold change": -0.182}, {"sequence": "RRIRWRPPRLPRPRPRPHGAPRP", "shrunken log2 fold change": 0.0287}, {"sequence": "RRIRNRPPRLPRPRPRPIIKPRP", "shrunken log2 fold change": -0.463}, {"sequence": "RRIRARPPRLPRPRPRPTPYPRP", "shrunken log2 fold change": -0.0244}, {"sequence": "RRIRKRPPRLPRPRPRPYTLPRP", "shrunken log2 fold change": 0.0187}, {"sequence": "RRIRGRPPRLPRPRPRPNTSPRP", "shrunken log2 fold change": 0.172}, {"sequence": "RRIRGRPPRLPRPRPRPIVPPRP", "shrunken log2 fold change": 0.02}, {"sequence": "RRIRTRPPRLPRPRPRPGWVPRP", "shrunken log2 fold change": -0.0236}, {"sequence": "RRIRWRPPRLPRPRPRPTSVPRP", "shrunken log2 fold change": 0.233}, {"sequence": "RRIRKRPPRLPRPRPRPLMDPRP", "shrunken log2 fold change": 0.16}, {"sequence": "RRIRDRPPRLPRPRPRPSRRPRP", "shrunken log2 fold change": 0.146}, {"sequence": "RRIRDRPPRLPRPRPRPAGCPRP", "shrunken log2 fold change": 0.738}, {"sequence": "RRIRNRPPRLPRPRPRPYCYPRP", "shrunken log2 fold change": -1.44}, {"sequence": "RRIRFRPPRLPRPRPRPFSVPRP", "shrunken log2 fold change": -1.57}, {"sequence": "RRIRFRPPRLPRPRPRPPGQPRP", "shrunken log2 fold change": 1}, {"sequence": "RRIRDRPPRLPRPRPRPRYRPRP", "shrunken log2 fold change": -0.101}, {"sequence": "RRIRKRPPRLPRPRPRPGLQPRP", "shrunken log2 fold change": -0.00225}, {"sequence": "RRIRCRPPRLPRPRPRPGVGPRP", "shrunken log2 fold change": 0.455}, {"sequence": "RRIRDRPPRLPRPRPRPMMPPRP", "shrunken log2 fold change": -0.00348}, {"sequence": "RRIRQRPPRLPRPRPRPRFGPRP", "shrunken log2 fold change": 0.198}, {"sequence": "RRIRNRPPRLPRPRPRPLIEPRP", "shrunken log2 fold change": -0.284}, {"sequence": "RRIRVRPPRLPRPRPRPHWGPRP", "shrunken log2 fold change": -0.0382}, {"sequence": "RRIRTRPPRLPRPRPRPLMAPRP", "shrunken log2 fold change": -0.031}, {"sequence": "RRIRRRPPRLPRPRPRPNKNPRP", "shrunken log2 fold change": 0.153}, {"sequence": "RRIRARPPRLPRPRPRPHHYPRP", "shrunken log2 fold change": -0.223}, {"sequence": "RRIRKRPPRLPRPRPRPFPLPRP", "shrunken log2 fold change": 0.289}, {"sequence": "RRIRARPPRLPRPRPRPIDPPRP", "shrunken log2 fold change": 0.00727}, {"sequence": "RRIRLRPPRLPRPRPRPGVRPRP", "shrunken log2 fold change": 0.256}, {"sequence": "RRIRVRPPRLPRPRPRPAEWPRP", "shrunken log2 fold change": 0.129}, {"sequence": "RRIRLRPPRLPRPRPRPFMGPRP", "shrunken log2 fold change": -0.141}, {"sequence": "RRIRMRPPRLPRPRPRPIRMPRP", "shrunken log2 fold change": 0.213}, {"sequence": "RRIRQRPPRLPRPRPRPAHLPRP", "shrunken log2 fold change": 0.362}, {"sequence": "RRIRARPPRLPRPRPRPSCFPRP", "shrunken log2 fold change": 0.0871}, {"sequence": "RRIRARPPRLPRPRPRPQPKPRP", "shrunken log2 fold change": 0.465}, {"sequence": "RRIRVRPPRLPRPRPRPGHVPRP", "shrunken log2 fold change": 0.0316}, {"sequence": "RRIRVRPPRLPRPRPRPLECPRP", "shrunken log2 fold change": -0.041}, {"sequence": "RRIRARPPRLPRPRPRPMCAPRP", "shrunken log2 fold change": 0.813}, {"sequence": "RRIRCRPPRLPRPRPRPPMWPRP", "shrunken log2 fold change": 0.557}, {"sequence": "RRIRSRPPRLPRPRPRPWEGPRP", "shrunken log2 fold change": -0.0466}, {"sequence": "RRIRVRPPRLPRPRPRPNVEPRP", "shrunken log2 fold change": -0.0461}, {"sequence": "RRIRWRPPRLPRPRPRPYTPPRP", "shrunken log2 fold change": -0.72}, {"sequence": "RRIRYRPPRLPRPRPRPERTPRP", "shrunken log2 fold change": 0.0654}, {"sequence": "RRIRHRPPRLPRPRPRPEHLPRP", "shrunken log2 fold change": 0.0981}, {"sequence": "RRIRSRPPRLPRPRPRPVPEPRP", "shrunken log2 fold change": 0.563}, {"sequence": "RRIRTRPPRLPRPRPRPDEIPRP", "shrunken log2 fold change": -0.235}, {"sequence": "RRIRTRPPRLPRPRPRPYWHPRP", "shrunken log2 fold change": -0.4}, {"sequence": "RRIRIRPPRLPRPRPRPFISPRP", "shrunken log2 fold change": -1.43}, {"sequence": "RRIRARPPRLPRPRPRPNDPPRP", "shrunken log2 fold change": 0.104}]}]}
